Results taken from US11608490B2, “Composition for enhancing hair growth-inducing ability of adipose stem cells comprising udenafil as active ingredient” (INDUSTRY-ACADEMIC COOPERATION FOUNDATION, YONSEI UNIVERSITY, priority 2018, dated 2023).

B1: IL-4 peptide: cytokine whose expression is increased in udenafil-treated adipose stem cells; called IL-4 peptide, synthetic peptide of IL-4, IL-4 protein (protein, UniProt P05112 25-153, looked up)
Interleukin-4: HKCDITLQEIIKTLNSLTEQKTLCTELTVTDIFAASKNTTEKETFCRAATVLRQFYSHHEKDTRCLGATAQQFHRHKQLIRFLKRLDRNLWGLAGLNSCPVKEANQSTLENFLERLKTIMREKYSKCSS
B2: IL-12B peptide: cytokine whose expression is increased in udenafil-treated adipose stem cells; called IL-12B peptide, synthetic peptide of IL-12B, IL-12B protein (protein, UniProt P29460 23-328, looked up)
Interleukin-12 subunit beta: IWELKKDVYVVELDWYPDAPGEMVVLTCDTPEEDGITWTLDQSSEVLGSGKTLTIQVKEFGDAGQYTCHKGGEVLSHSLLLLHKKEDGIWSTDILKDQKEPKNKTFLRCEAKNYSGRFTCWWLTTISTDLTFSVKSSRGSSDPQGVTCGAATLSAERVRGDNKEYEYSVECQEDSACPAAEESLPIEVMVDAVHKLKYENYTSSFFIRDIIKPDPPKNLQLKPLKNSRQVEVSWEYPDTWSTPHSYFSLTFCVQVQGKSKREKKDRVFTDKTSATVICRKNASISVRAQDRYYSSSWSEWASVPCS

Legend:
human adipose stem cells [1] = test: Tube formation assay using MATRIGEL; type: cell-based; conditions: after 16 hours; FIG. 6(E)
Description: Human adipose stem cells were isolated via liposuction of subcutaneous fat, as described in a previous study: Briefly, the fat was washed with phosphate-buffered saline (PBS), 0.075% collagenase was added, and the mixture was incubated for 45 minutes at 37° C. with gentle shaking. After centrifugation, the pellet was filtered through a 100 am nylon mesh. Then, the cells were cultured with an essential medium containing alpha Minimum Essential Medium (α-MEM) (Hyclone, Logan, Utah, USA), 10% fetal bovine serum (FBS) (Gibco, Carlsbad, Calif., USA), and 1% antibiotics (Gibco) for three passages. Then, the medium was changed to contain α-MEM, 10% FBS, and 1% penicillin/streptomycin (Gibco), and the cells were cultured for four passages. The adipose stem cells at passages 5 to 7 were used for all experiments. Characterization of the adipose stem cells was performed using flow cytometry. The adipose stem cells were positive for CD44, CD73, CD90, CD105, human leukocyte antigen (HLA)-I, and podocalyxin-like protein (PODXL), and were negative for hematopoietic markers such as CD34 and CD45. A multipotent differentiation potential was examined, as described in a previous study; as a result, the adipose stem cells could be differentiated into adipocytes, osteocytes, and chondrocytes. […] The number of tubes was analyzed under a ZEISS™ Observer D1 microscope.

IL-12B mRNA = test: qPCR of IL-12B expression level in udenafil-treated adipose stem cells; type: cell-based; conditions: adipose stem cells treated with 1 μM udenafil for 3 to 4 days, versus non-udenafil-treated adipose stem cells (Control); FIG. 3
Description: (§1) First, adipose stem cells were preconditioned with udenafil to prepare stimulated adipose stem cells. Adipose stem cells were inoculated on a […] and cultured. The following day, 1 μM udenafil was added to the culture medium and additional culture was performed for 3 to 4 days. Subsequently, adherent cultured adipose stem cells were detached with trypsin, and then obtained by centrifugation. The obtained adipose stem cells were prepared by being mixed with 100 μl of PBS.
(§2) Specifically, as performed in Example <1-1>, adipose stem cells were treated with udenafil and cultured. After completion of the culture, the cells were obtained and RNA was extracted from the cells by treatment with TRIZOL™ (Invitrogen, NY, USA). Using the extracted RNA as a template, cDNA was synthesized through RT-PCR using oligodT and HELIXCRIPT™ Thermo Reverse Transcription System (NANOHELIX, WI, USA). The synthesized cDNA and BrightGreen qPCR master mix-ROX (abm, NY, US) were added to 96-well qPCR assay Kit for identifying growth factors [RT^2 First Strand (DNA Synthesis Kit (QIAGEN, MD, USA)], to perform a qPCR reaction. The results obtained by performing the qPCR reaction were analyzed using a program which corresponds to the RT^2 First Strand cDNA Synthesis Kit and is provided by QIAGEN, and IL-4 and IL-12B expression levels in the udenafil-treated adipose stem cells were respectively identified.

IL-4 mRNA = test: qPCR of IL-4 expression level in udenafil-treated adipose stem cells; type: cell-based; conditions: adipose stem cells treated with 1 μM udenafil for 3 to 4 days, versus non-udenafil-treated adipose stem cells (Control); FIG. 3
Description: as §1, §2

human adipose stem cells [2] = test: Scratch wound-healing assay; type: cell-based; conditions: for migration of the adipose stem cells, scratch wound-healing assay: IL-4 or IL-12B in serum-free medium for 3 days, FIG. 7 (B to E)
Description: (§3) Human adipose stem cells were isolated via liposuction of subcutaneous fat, as described in a previous study: Briefly, the fat was washed with phosphate-buffered saline (PBS), 0.075% collagenase was added, and the mixture was incubated for 45 minutes at 37° C. with gentle shaking. After centrifugation, the pellet was filtered through a 100 am nylon mesh. Then, the cells were cultured with an essential medium containing alpha Minimum Essential Medium (α-MEM) (Hyclone, Logan, Utah, USA), 10% fetal bovine serum (FBS) (Gibco, Carlsbad, Calif., USA), and 1% antibiotics (Gibco) for three passages. Then, the medium was changed to contain α-MEM, 10% FBS, and 1% penicillin/streptomycin (Gibco), and the cells were cultured for four passages. The adipose stem cells at passages 5 to 7 were used for all experiments. Characterization of the adipose stem cells was performed using flow cytometry. The adipose stem cells were positive for CD44, CD73, CD90, CD105, human leukocyte antigen (HLA)-I, and podocalyxin-like protein (PODXL), and were negative for hematopoietic markers such as CD34 and CD45. A multipotent differentiation potential was examined, as described in a previous study; as a result, the adipose stem cells could be differentiated into adipocytes, osteocytes, and chondrocytes. The adipose stem cells were maintained at 37° C. in a humidified 5% CO2 incubator.
The adipose stem cells were seeded into 6-well plates and cultured to confluence. A sterile 1 ml pipette tip was used to scratch the cell monolayer. The cultures were then washed with PBS to remove de-plated cells, and the cells were again cultured with udenafil, or IL-4, and IL-12B in a serum-free medium for 3 days. Cell migration into the scratched area (wound closure) was visualized using a ZEISS™ Observer D1 microscope. Multiple images were acquired per well, and the average cell number within the wound was monitored over 3 days.

human adipose stem cells [3] = test: Cell growth assay (live cell number, trypan blue); type: cell-based; conditions: 7 days; for proliferation of the adipose stem cells (live cell number): IL-4 or IL-12B 100 ng/ml, FIG. 7(A)
Description: as §3
For cell growth assay, the adipose stem cells were seeded in 12-well plates, with 5×10^3 cells/well, treated with udenafil (0.1, 0.5, or 1 μM), and incubated for 7 days. The adipose stem cells were also seeded in 12-well plates, with 1×10^4 cells/well, treated with a synthetic peptide of IL-4 or IL-12B (100 ng/ml), and incubated for 7 days. The cells were then trypsinized, stained with trypan blue (Sigma-Aldrich, MO, USA), and counted each day using a hemocytometer.

human adipose stem cells [4] = test: Transwell migration assay; type: cell-based; conditions: migration 1 day; for migration of the adipose stem cells, transwell migration assay: IL-4 or IL-12B treatment for 3 days, FIG. 7 (B to E)
Description: as §3
The adipose stem cells were seeded into 60 mm plates and treated with udenafil IL-4, or IL-12B for 3 days. The adipose stem cells starved for 1 day (1.5×10^4cells/well) were suspended in a serum-free medium and seeded on the upper side of transwell membrane inserts (BD Falcon, CA, USA), which was pre-coated with MATRIGEL™ (1/60 dilution, BD MATRIGEL™ matrix, CA, USA). The normal serum With FBS was added in the lower side thereof as a chemoattractant. […] The inserts were stained with […] solution (Sigma-Aldrich) for 20 minutes, and the cell number was analyzed under a ZEISS™ Observer D1 microscope. Multiple images (15 to 20) were acquired per insert, and the average cell counts were calculated.

C3H mice = test: Hair growth effect of IL-4 or IL-12B peptide applied to dorsum of mice; type: in vivo, mouse; conditions: 100 ng/ml applied to dorsum once a day for 13 to 14 days, FIG. 4; for maturation of hair follicle tissue: H&E staining
Description: Specifically, the dorsal hair of 6-week-old C3H mice was completely removed, and 100 ng/ml of an IL-4 peptide or an IL-12B peptide was applied to the dorsum of the mice once a day. It was identified whether the hair was growing while applying the IL-4 peptide or IL-12B peptide for 13 to 14 days. Then, a photograph was taken and the dorsal skin tissue was obtained.

[5] = test system: vibrissal hair follicle cells; test: Vibrissal hair follicle culture, length of hair grown; type: cell-based, mouse; conditions: 5 ng/ml or 20 ng/ml, 3 days culture, versus non-treated control; FIG. 5
Description: In addition, the vibrissal hair follicle of 5-week-old C57b1/6 mice was dissected to obtain hair follicle cells, and the hair follicle cells were transferred to 48-well plates. Then, treatment with 5 ng/ml or 20 ng/ml of an IL-4 peptide or an IL-12B peptide was performed and culture was performed for 3 days. After completion of the culture, the hair follicle tissue was photographed and a length of hair grown therefrom was measured.

[6] = test system: dermal papilla cells (DP cells); test: Growth of dermal papilla cells after treatment with IL-4 or IL-12B; type: cell-based; conditions: FIG. 8

Molecule	number of nascent tubes (tube-forming activity) (human adipose stem cells [1])	IL-12B mRNA expression level (IL-12B mRNA)	IL-4 mRNA expression level (IL-4 mRNA)	ASC migration, scratch wound-healing assay (human adipose stem cells [2]; udenafil in serum-free medium for 3 days, FIG. 6 (B to D))	growth of adipose stem cells (live cell number) (human adipose stem cells [3]; udenafil 0.1, 0.5 or 1 μM, FIG. 6(A))	ASC migration, transwell migration assay (human adipose stem cells [4]; udenafil treatment for 3 days, FIG. 6 (B to D))	hair growth effect (C3H mice)	maturation of hair follicle tissue (C3H mice)	migration of the adipose stem cells, scratch wound-healing assay (human adipose stem cells [2])	proliferation of the adipose stem cells (live cell number) (human adipose stem cells [3])	migration of the adipose stem cells, transwell migration assay (human adipose stem cells [4])	length of hair grown from the hair follicle cells [5]	growth of the DP cells [6]
CCCOc1ccc(S(=O)(=O)NCCC2CCCN2C)cc1-c1nc(=O)c2c([nH]1)c(CCC)nn2C (centres unmarked) [udenafil]	increases the number of nascent tubes	about 6 fold	about 4 fold	increases ASC migration in both assays in a dose-dependent manner	increases growth of adipose stem cells in a time- and dose-dependent manner	increases ASC migration in both assays in a dose-dependent manner							
B1							increased hair growth effect	significantly maturated	increase migration of the adipose stem cells in a dose-dependent manner	not	increase migration of the adipose stem cells in a dose-dependent manner	longer than that of the non-treated control	increased growth of the DP cells
B2							increased hair growth effect	significantly maturated	increase migration of the adipose stem cells in a dose-dependent manner	increases proliferation of the adipose stem cells in a time- and dose-dependent manner	increase migration of the adipose stem cells in a dose-dependent manner	longer than that of the non-treated control	increased growth of the DP cells
